{"source": "paper PMC5736350", "target": "CLASPIN (UniProt Q9HAW4)", "experiment": "anti-myc co-immunoprecipitation", "settings": "reference: wild-type RAD9-mH; sites T313", "data": [{"substance": "RAD9 (from UniProt Q99638) RAD9-T313A-mH", "values": [{"measurement": "binding against the reference", "value": "stronger"}]}]}
